Laboratory results published in PMC7113306 (2020).
Values joined by “and” are separate entries in the source; they are usually repeats but may differ in a detail not shown here. Equal entries are not always repeated.

Assays:
Assay in all cases: SPR
[1] = biological target: T1, ALK1 extracellular domain (ALK1 ECD) (human, UniProt P37023 22-118)
[2] = biological target: T2, ALK1-Fc (ALK1 extracellular domain-Fc fusion protein) (UniProt P37023 22-118)
[3] = biological target: T1, ALK1 extracellular domain (ALK1 ECD); remark: listed apart in the source
[4] = biological target: T2, ALK1-Fc (ALK1 extracellular domain-Fc …); remark: listed apart in the source
ALK2-Fc = biological target: T3, ALK2-Fc (UniProt Q04771 21-123)
T3 chain: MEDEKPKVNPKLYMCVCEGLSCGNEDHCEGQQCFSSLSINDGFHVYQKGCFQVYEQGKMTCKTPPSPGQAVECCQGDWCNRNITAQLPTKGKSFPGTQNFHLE

T2 sequence (P37023 22-118): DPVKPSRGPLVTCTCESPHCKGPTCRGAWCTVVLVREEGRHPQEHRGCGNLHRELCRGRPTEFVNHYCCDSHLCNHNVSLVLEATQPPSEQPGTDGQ
T1 sequence (P37023 22-118): as above

B1: pro-BMP10 (prodomain-bound BMP10) (complex)
chain 1: SPIMNLEQSPLEEDMSLFGDVFSEQDGVDFNTLLQSMKDEFLKTLNLSDIPTQDSAKVDPPEYMLELYNKFATDRTSMPSANIIRSFKNEDLFSQPVSFNGLRKYPLLFNVSIPHHEEVIMAELRLYTLVQRDRMIYDGVDRKITIFEVLESKGDNEGERNMLVLVSGEIYGTNSEWETFDVTDAIRRWQKSGSSTHQLEVHIESKHDEAEDASSGRLEIDTSAQNKHNPLLIVFSDDQSSDKERKEELNEMISHEQLPELDNLGLDSFSSGPGEEALLQMRSNIIYDSTARIRR
chain 2: NAKGNYCKRTPLYIDFKEIGWDSWIIAPPGYEAYECRGVCNYPLAEHLTPTKHAIIQALVHLKNSQKASKACCVPTKLEPISILYLDKGVVTYKFKYEGMAVSECGCR
modifications: furin-processed; prodomain non-covalently bound to the disulfide-linked GF-domain dimer; secreted from HEK EBNA cells. Limits are from the UniProt PROPEP and CHAIN features.
Kd [1]: 0.017 nM
Kd [2]: 0.0187 nM and 0.0112 nM
koff [3]: 5.63e-05 s⁻¹
koff [4]: 3.44e-05 s⁻¹

B2: BMP10 GF-domain (bone morphogenetic protein 10 growth factor domain) (ligand)
chain: NAKGNYCKRTPLYIDFKEIGWDSWIIAPPGYEAYECRGVCNYPLAEHLTPTKHAIIQALVHLKNSQKASKACCVPTKLEPISILYLDKGVVTYKFKYEGMAVSECGCR
Kd [1]: 0.0557 nM
koff [3]: 8.5e-05 s⁻¹
koff [4]: 5.31e-05 s⁻¹

B3: BMP9 GF-domain (bone morphogenetic protein 9 growth factor domain) (ligand)
chain: SAGAGSHCQKTSLRVNFEDIGWDSWIIAPKEYEAYECKGGCFFPLADDVTPTKHAIVQTLVHLKFPTKVGKACCVPTKLSPISVLYKDDMGVPTLKYHYEGMSVAECGCR
Kd [1]: 0.0716 nM
koff [3]: 8.37e-05 s⁻¹
koff [4]: 6.19e-05 s⁻¹

B4: pro-BMP9 (prodomain-bound BMP9) (complex)
chain 1: KPLQSWGRGSAGGNAHSPLGVPGGGLPEHTFNLKMFLENVKVDFLRSLNLSGVPSQDKTRVEPPQYMIDLYNRYTSDKSTTPASNIVRSFSMEDAISITATEDFPFQKHILLFNISIPRHEQITRAELRLYVSCQNHVDPSHDLKGSVVIYDVLDGTDAWDSATETKTFLVSQDIQDEGWETLEVSSAVKRWVRSDSTKSKNKLEVTVESHRKGCDTLDISVPPGSRNLPFFVVFSNDHSSGTKETRLELREMISHEQESVLKKLSKDGSTEAGESSHEEDTDGHVAAGSTLARRKR
chain 2: SAGAGSHCQKTSLRVNFEDIGWDSWIIAPKEYEAYECKGGCFFPLADDVTPTKHAIVQTLVHLKFPTKVGKACCVPTKLSPISVLYKDDMGVPTLKYHYEGMSVAECGCR
Kd (ALK2-Fc): 86.2 nM
Kd [1]: 0.0929 nM
Kd [2]: 0.0392 nM and 0.0612 nM
koff [3]: 8.46e-05 s⁻¹
koff [4]: 4.84e-05 s⁻¹

B5: BMP6-GF WT (protein)
chain: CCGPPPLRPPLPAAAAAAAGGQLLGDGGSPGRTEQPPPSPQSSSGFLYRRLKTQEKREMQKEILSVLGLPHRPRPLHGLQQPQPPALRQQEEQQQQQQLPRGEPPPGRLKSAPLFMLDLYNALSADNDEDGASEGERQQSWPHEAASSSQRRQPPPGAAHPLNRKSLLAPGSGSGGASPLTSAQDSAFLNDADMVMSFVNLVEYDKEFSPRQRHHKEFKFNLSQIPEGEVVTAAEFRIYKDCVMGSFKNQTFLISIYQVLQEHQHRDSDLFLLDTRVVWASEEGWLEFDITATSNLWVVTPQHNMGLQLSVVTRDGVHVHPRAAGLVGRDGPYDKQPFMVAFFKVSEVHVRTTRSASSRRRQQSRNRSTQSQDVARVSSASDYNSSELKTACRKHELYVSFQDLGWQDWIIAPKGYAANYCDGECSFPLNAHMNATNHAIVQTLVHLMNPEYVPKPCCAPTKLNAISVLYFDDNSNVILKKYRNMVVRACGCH
modifications: disulfide-linked GF-domain homodimer. The text gives no BMP6 construct, source or limits (named only in a figure), so the human mature chain is assumed.
Kd (ALK2-Fc): 19.2 nM
